Results: US20180037904A1

Legend:
[1] = biological target: Rubisco from wheat (wheat) (UniProt P11383); assay: cell-based or functional assay
[2] = biological target: Rubisco (Ribulose-1,5-bis-phosphate carboxylase/oxygenase) purified from Oryza sativa leaves (Oryza sativa) (UniProt P0C512); assay: cell-based or functional assay
[3] = biological target: Rubisco (Ribulose-1,5-bis-phosphate carboxylase/oxygenase) purified from Oryza sativa leaves, P0C512

beta isoform of RCA extracted from wheat leaves (0.2 M KCl anion-exchange fraction) (enzyme)
activation of wheat Rubisco by leaf-extracted beta isoform at less than 34° C., relative to the rice RCA isoforms [1]: > 2 fold

leaf-extracted RCA from Oryza sativa (partially purified, alpha and beta isoforms) (from UniProt P93431 49-466; P93431 49-428) (enzyme)
reduction in fraction of Rubisco activated at comparable temperatures [2]: 80%

B1: recombinant Oryza sativa Rubisco activase (RCA), beta (short) isoform (protein)
chain: MAKELDEGKQTDQDRWKGLAYDISDDQQDITRGKGFVDSLFQAPTGDGTHEAVLSSYEYLSQGLRTYDFDNTMGGFYIAPAFMDKLVVHISKNFMTLPNIKVPLILGIWGGKGQGKSFQCELVFAKMGINPIMMSAGELESGNAGEPAKLIRQRYREAADIIKKGKMCCLFINDLDAGAGRMGGTTQYTVNNQMVNATLMNIADNPTNVQLPGMYNKEDNPRVPIIVTGNDFSTLYAPLIRDGRMEKFYWAPTRDDRVGVCKGIFRTDNVPDEDIVKIVDSFPGQSIDFFGALRARVYDDEVRKWVSDTGVENIGKRLVNSREGPPEFEQPKMTIEKLMEYGYMLVKEQENVKRVQLAEQYLSEAALGDANSDAMKTGSFYGSAPSS
Rubisco activation activity of recombinant RCA at 30 and 36° C. [3]: the β isoform of RCAOs has higher activity than RCAOa | concentration-dependent specific activity of ATP hydrolysis: specific activity of ATP hydrolysis falls at low RCA concentrations | temperature stability of ATP hydrolysis: both being heat stable, not losing activity until 40 °C

B2: recombinant Oryza australiensis Rubisco activase (RCA), alpha (long) isoform (protein)
chain: MAKELDEDKQTDQDKWKGLAYDISDDQQDITRGKGLVDSLFQAPMGDGTHEAVLSSYEYLSQGLKMLDNTMGGFYIAPAFMDKLVVHISKNFMALPNIKVPLILGIWGGKGQGKSFQCELVFSKMGINPIMMSAGELESGNAGEPAKLIRQRYREAADIIKKGKMCCLFINDLDAGAGRMGGTTQYTVNNQMVNATLMNIADNPTNVQLPGMYNKEDNPRVPIIVTGNDFSTLYAPLIRDGRMEKFYWAPTRDDRVGVCKGIFRTDNVPDEDIVKIVDSFPGQSIDFFGALRARVYDDEVRKWVSDTGVENIGKKLVNSREGPPEFEQPKMTIDKLMEYGHMLVREQENVKRVQLADKYLSEAALGDANSDAMKTGSFYGQGAQQGGNLPVPEGCTDPVAKNFDPTARSDDGSCLYTF
Rubisco activation activity of recombinant RCA at 30 and 36° C. [3]: there is little difference in activity of the α isoform between the species | concentration-dependent specific activity of ATP hydrolysis: specific activity of ATP hydrolysis falls at low RCA concentrations | temperature stability of ATP hydrolysis: both being heat stable, not losing activity until 40 °C

B3: leaf-extracted RCA from Oryza sativa (partially purified, alpha and beta isoforms) (protein)
chain 1: KELDEGKQTDQDRWKGLAYDISDDQQDITRGKGFVDSLFQAPTGDGTHEAVLSSYEYLSQGLRTYDFDNTMGGFYIAPAFMDKLVVHISKNFMTLPNIKVPLILGIWGGKGQGKSFQCELVFAKMGINPIMMSAGELESGNAGEPAKLIRQRYREAADIIKKGKMCCLFINDLDAGAGRMGGTTQYTVNNQMVNATLMNIADNPTNVQLPGMYNKEDNPRVPIIVTGNDFSTLYAPLIRDGRMEKFYWAPTRDDRVGVCKGIFRTDNVPDEDIVKIVDSFPGQSIDFFGALRARVYDDEVRKWVSDTGVENIGKRLVNSREGPPEFEQPKMTIEKLMEYGYMLVKEQENVKRVQLAEQYLSEAALGDANSDAMKTGSFYGQGAQQAGNLPVPEGCTDPVAKNFDPTARSDDGSCLYTF
chain 2: KELDEGKQTDQDRWKGLAYDISDDQQDITRGKGFVDSLFQAPTGDGTHEAVLSSYEYLSQGLRTYDFDNTMGGFYIAPAFMDKLVVHISKNFMTLPNIKVPLILGIWGGKGQGKSFQCELVFAKMGINPIMMSAGELESGNAGEPAKLIRQRYREAADIIKKGKMCCLFINDLDAGAGRMGGTTQYTVNNQMVNATLMNIADNPTNVQLPGMYNKEDNPRVPIIVTGNDFSTLYAPLIRDGRMEKFYWAPTRDDRVGVCKGIFRTDNVPDEDIVKIVDSFPGQSIDFFGALRARVYDDEVRKWVSDTGVENIGKRLVNSREGPPEFEQPKMTIEKLMEYGYMLVKEQENVKRVQLAEQYLSEAALGDANSDAMKTGSFYGSAPSS
peak in RCA activation performance (temperature of maximal Rubisco activation) [3]: 29.9±0.5 °C for O. sativa

B4: recombinant Oryza australiensis Rubisco activase (RCA), beta (short) isoform (protein)
chain: MAKELDEDKQTDQDKWKGLAYDISDDQQDITRGKGLVDSLFQAPMGDGTHEAVLSSYEYLSQGLKMLDNTMGGFYIAPAFMDKLVVHISKNFMALPNIKVPLILGIWGGKGQGKSFQCELVFSKMGINPIMMSAGELESGNAGEPAKLIRQRYREAADIIKKGKMCCLFINDLDAGAGRMGGTTQYTVNNQMVNATLMNIADNPTNVQLPGMYNKEDNPRVPIIVTGNDFSTLYAPLIRDGRMEKFYWAPTRDDRVGVCKGIFRTDNVPDEDIVKIVDSFPGQSIDFFGALRARVYDDEVRKWVSDTGVENIGKKLVNSREGPPEFEQPKMTIDKLMEYGHMLVREQENVKRVQLADKYLSEAALGDANSDAMKTGSFYGAAPSS
Rubisco activation activity of recombinant RCA at 30 and 36° C. [3]: the β isoform of RCAOs has higher activity than RCAOa | concentration-dependent specific activity of ATP hydrolysis: specific activity of ATP hydrolysis falls at low RCA concentrations | temperature stability of ATP hydrolysis: both being heat stable, not losing activity until 40 °C

B5: leaf-extracted RCA from Oryza australiensis (partially purified, alpha and beta isoforms) (protein)
chain 1: KELDEDKQTDQDKWKGLAYDISDDQQDITRGKGLVDSLFQAPMGDGTHEAVLSSYEYLSQGLKMLDNTMGGFYIAPAFMDKLVVHISKNFMALPNIKVPLILGIWGGKGQGKSFQCELVFSKMGINPIMMSAGELESGNAGEPAKLIRQRYREAADIIKKGKMCCLFINDLDAGAGRMGGTTQYTVNNQMVNATLMNIADNPTNVQLPGMYNKEDNPRVPIIVTGNDFSTLYAPLIRDGRMEKFYWAPTRDDRVGVCKGIFRTDNVPDEDIVKIVDSFPGQSIDFFGALRARVYDDEVRKWVSDTGVENIGKKLVNSREGPPEFEQPKMTIDKLMEYGHMLVREQENVKRVQLADKYLSEAALGDANSDAMKTGSFYGQGAQQGGNLPVPEGCTDPVAKNFDPTARSDDGSCLYTF
chain 2: KELDEDKQTDQDKWKGLAYDISDDQQDITRGKGLVDSLFQAPMGDGTHEAVLSSYEYLSQGLKMLDNTMGGFYIAPAFMDKLVVHISKNFMALPNIKVPLILGIWGGKGQGKSFQCELVFSKMGINPIMMSAGELESGNAGEPAKLIRQRYREAADIIKKGKMCCLFINDLDAGAGRMGGTTQYTVNNQMVNATLMNIADNPTNVQLPGMYNKEDNPRVPIIVTGNDFSTLYAPLIRDGRMEKFYWAPTRDDRVGVCKGIFRTDNVPDEDIVKIVDSFPGQSIDFFGALRARVYDDEVRKWVSDTGVENIGKKLVNSREGPPEFEQPKMTIDKLMEYGHMLVREQENVKRVQLADKYLSEAALGDANSDAMKTGSFYGAAPSS
absolute rate of Rubisco activation at 42° C. relative to Os RCA [3]: at 42 °C Oa had an absolute rate of activity four-times that of Os | drop in Rubisco activation activity at 42° C. relative to 30° C., RCA at 0.96 mg·mL^-1 [3]: close to a 50% drop in activity at 42 °C relative to 30 °C | fall in Rubisco activation activity at 42° C. relative to 30° C., RCA at 0.24 and 0.49 mg·mL^-1 [3]: less than a 20% fall at concentrations of 0.24 and 0.49 mg·mL^-1 | peak in RCA activation performance (temperature of maximal Rubisco activation) [3]: 33.0±0.3 °C for O. australiensis

B6: recombinant Oryza sativa Rubisco activase (RCA), alpha (long) isoform (protein)
chain: MAKELDEGKQTDQDRWKGLAYDISDDQQDITRGKGFVDSLFQAPTGDGTHEAVLSSYEYLSQGLRTYDFDNTMGGFYIAPAFMDKLVVHISKNFMTLPNIKVPLILGIWGGKGQGKSFQCELVFAKMGINPIMMSAGELESGNAGEPAKLIRQRYREAADIIKKGKMCCLFINDLDAGAGRMGGTTQYTVNNQMVNATLMNIADNPTNVQLPGMYNKEDNPRVPIIVTGNDFSTLYAPLIRDGRMEKFYWAPTRDDRVGVCKGIFRTDNVPDEDIVKIVDSFPGQSIDFFGALRARVYDDEVRKWVSDTGVENIGKRLVNSREGPPEFEQPKMTIEKLMEYGYMLVKEQENVKRVQLAEQYLSEAALGDANSDAMKTGSFYGQGAQQAGNLPVPEGCTDPVAKNFDPTARSDDGSCLYTF
Rubisco activation activity of recombinant RCA at 30 and 36° C. [3]: there is little difference in activity of the α isoform between the species | concentration-dependent specific activity of ATP hydrolysis: specific activity of ATP hydrolysis falls at low RCA concentrations | temperature stability of ATP hydrolysis: both being heat stable, not losing activity until 40 °C
